Measurements from US20080057063A1.

Biological target: cynomolgus αV (HEK-293 cells transfected with cynomolgus αV alone) (cynomolgus)
Assay: FACS, HEK-293 transfected with cynomolgus αV

Chain of cynomolgus αV (HEK-293 cells transfected with cynomolgus αV alone) (cynomolgus) (chain, as listed by the source): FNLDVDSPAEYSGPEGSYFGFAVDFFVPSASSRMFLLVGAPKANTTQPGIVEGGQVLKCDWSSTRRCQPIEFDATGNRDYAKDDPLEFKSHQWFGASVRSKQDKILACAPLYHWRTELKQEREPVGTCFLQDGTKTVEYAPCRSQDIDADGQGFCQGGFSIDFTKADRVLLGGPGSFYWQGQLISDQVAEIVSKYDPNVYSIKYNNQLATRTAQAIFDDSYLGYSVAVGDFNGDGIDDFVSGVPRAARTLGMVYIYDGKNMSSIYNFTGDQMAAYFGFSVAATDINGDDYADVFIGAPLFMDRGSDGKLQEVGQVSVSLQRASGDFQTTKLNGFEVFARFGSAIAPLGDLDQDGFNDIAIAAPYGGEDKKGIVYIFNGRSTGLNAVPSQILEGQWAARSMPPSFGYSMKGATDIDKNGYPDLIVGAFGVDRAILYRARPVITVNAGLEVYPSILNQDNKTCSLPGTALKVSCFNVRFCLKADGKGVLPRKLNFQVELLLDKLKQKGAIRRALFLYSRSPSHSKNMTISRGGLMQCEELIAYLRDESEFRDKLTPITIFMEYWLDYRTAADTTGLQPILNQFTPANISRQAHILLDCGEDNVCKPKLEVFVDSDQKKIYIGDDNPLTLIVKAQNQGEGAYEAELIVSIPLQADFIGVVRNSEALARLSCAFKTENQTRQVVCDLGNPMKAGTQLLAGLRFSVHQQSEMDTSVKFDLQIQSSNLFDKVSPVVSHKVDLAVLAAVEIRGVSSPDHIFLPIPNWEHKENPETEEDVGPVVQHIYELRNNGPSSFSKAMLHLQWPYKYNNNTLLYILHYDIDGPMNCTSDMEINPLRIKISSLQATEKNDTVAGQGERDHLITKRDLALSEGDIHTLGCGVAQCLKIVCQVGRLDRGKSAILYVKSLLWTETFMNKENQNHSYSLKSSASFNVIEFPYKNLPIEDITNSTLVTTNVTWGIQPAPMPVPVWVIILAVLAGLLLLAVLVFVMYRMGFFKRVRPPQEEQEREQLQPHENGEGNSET

- percent of cells shifted: 5%
B1: sc 133 (antibody, V domains shown)
VH: QVQLVQSGAEVKKPGASVKVSCKASGYTFTGYYMHWVRQAPGQGLEWMGWINPKSGDTNYAQKFQGRVTLTRDTSTSTAYMELSRLRSDDTAVYYCARRLDVWGQGTTVTVSS
VL: QSVLTQPPSVSAAPGQKVTISCSGSSSNIGNNYVSWYQQLPGTAPKLLIYDNNKRPSGIPDRFSGSKSGTSATLGITGLQTGDEADYYCGTWNSSLSAGYVFGTGTKVTV
